According to article PMC11154593, “New insights into the domain of unknown function (DUF) of EccC5, the pivotal ATPase providing the secretion driving force to the ESX-5 secretion system” (Acta Crystallographica. Section D, Structural Biology, 2024):
Values joined by “and” are separate entries in the source; they are usually repeats but may differ in a detail not shown here. Equal entries are not always repeated.

Target: the molecule itself
Assay: SEC; […] (16/60) […]; 20 mM Tris-HCl pH 7.5, 150 mM NaCl ([…]) or 20 mM HEPES pH 7.5, 150 mM NaCl, 5 mM MgCl2 ([…]; 4°C

B1: DUF domain of EccC5 from M. tuberculosis (crystallographic construct, residues 1-417 with 17-118 rep (domain or fragment)
chain: MKRGFARPTPEKPPVIGSSGQESADSMDANYRWFHPAPNTLAAAVGSPRMWERKPDGKDLNFGVVRVGGSGFGRYQSVVYNLPKMVSLLVEPWYALVGEREQVLGLMRAIICQLAFSHGPDHVQMIVVSSDLDQWDWVKWLPHFGDSRRHDAAGNARMVYTSVREFAAEQAELFAGRGSFTPRHASSSAQTPTPHTVIIADVDDPQWEYVISAEGVDGVTFFDLTGSSMWTDIPERKLQFDKTGVIEALPRDRDTWMVIDDKAWFFALTDQVSIAEAEEFAQKLAQWRLA
notes: EccC5, M. tuberculosis, UniProt P9WNA5, residues 1-16 (before the removed transmembrane region); linker replacing residues 17-118; EccC5, M. tuberculosis, UniProt P9WNA5, residues 119-166; linker replacing residues 167-198; EccC5, M. tuberculosis, UniProt P9WNA5, residues 199-417; also called MtbEccC5 DUF; EccC5 DUF; not shown: His6, N-terminal, cleaved; SUMO, N-terminal, cleaved
  stoichiometry N: 3 and 6
